Assay results reported in US20260001928A1 (CORTERIA PHARMACEUTICALS, priority 2022, published 2026).
Values belong to the binder of their own block, whether it stands above or below them. *1 amine or outer side, *2 acyl side, *3 side chain or, on linkers, in order; H or OH if unused. Where no end group is shown, it is not given here. Side-chain parts run from the residue outwards. [ ]: non-standard residue; d: D form. The star is where a group is joined. C18 diacid = O=C(O)CCCCCCCCCCCCCCCCC(=O)*; C16 diacid = O=C(O)CCCCCCCCCCCCCCC(=O)*; γGlu = O=C(O)[C@H](CCC(=O)[*:2])N[*:1]; NMeI = CC[C@H](C)[C@H](NC)C(=O)O; Pentanoyl = CCCCC(=O)*; AEEA = NCCOCCOCC(=O)O; Aib = CC(C)(N)C(=O)O

Legend:
[1] = biological target: human corticotropin-releasing factor 2a (CRF2a receptor) (human), Q13324; experiment: cell-based or functional assay
[2] = biological target: T1, CRF1R receptor (UniProt P34998 24-415, limits assumed); experiment: cell-based or functional assay
T1 sequence (looked up): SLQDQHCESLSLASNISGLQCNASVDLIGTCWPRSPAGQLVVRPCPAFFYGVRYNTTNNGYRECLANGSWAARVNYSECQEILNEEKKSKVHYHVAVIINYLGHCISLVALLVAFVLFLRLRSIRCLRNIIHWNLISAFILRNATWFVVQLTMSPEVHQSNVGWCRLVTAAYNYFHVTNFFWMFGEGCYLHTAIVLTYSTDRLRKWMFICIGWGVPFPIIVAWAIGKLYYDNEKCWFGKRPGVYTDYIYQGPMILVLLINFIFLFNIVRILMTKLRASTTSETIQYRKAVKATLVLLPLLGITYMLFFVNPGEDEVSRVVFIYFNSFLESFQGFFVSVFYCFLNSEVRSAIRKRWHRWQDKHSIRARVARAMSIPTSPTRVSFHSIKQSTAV

Chain of human corticotropin-releasing factor 2a (CRF2a receptor) (human), Q13324 (Q13324 20-411): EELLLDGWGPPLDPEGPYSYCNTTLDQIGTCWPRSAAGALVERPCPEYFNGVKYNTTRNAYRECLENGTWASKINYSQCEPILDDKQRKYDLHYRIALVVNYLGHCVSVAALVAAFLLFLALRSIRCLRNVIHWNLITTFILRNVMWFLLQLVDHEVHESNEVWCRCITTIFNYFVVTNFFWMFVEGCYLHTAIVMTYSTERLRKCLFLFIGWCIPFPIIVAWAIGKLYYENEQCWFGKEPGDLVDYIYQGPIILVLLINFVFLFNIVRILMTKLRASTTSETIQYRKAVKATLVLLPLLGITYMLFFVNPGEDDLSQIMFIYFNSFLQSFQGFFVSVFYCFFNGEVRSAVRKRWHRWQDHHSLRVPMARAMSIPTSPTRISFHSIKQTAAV

B1: SEQ ID NO 81 (peptide)
peptide: Pentanoyl-VLSLD[dV]PIKLK([γGlu-C16 diacid])KILLEQEKQKKQREQAETNVQILAQV-NH2
SMILES: CCCCC(=O)N[C@H](C(=O)N[C@@H](CC(C)C)C(=O)N[C@@H](CO)C(=O)N[C@@H](CC(C)C)C(=O)N[C@@H](CC(=O)O)C(=O)N[C@@H](C(=O)N1CCC[C@H]1C(=O)N[C@H](C(=O)N[C@@H](CCCCN)C(=O)N[C@@H](CC(C)C)C(=O)N[C@@H](CCCCNC(=O)CC[C@H](NC(=O)CCCCCCCCCCCCCCC(=O)O)C(=O)O)C(=O)N[C@@H](CCCCN)C(=O)N[C@H](C(=O)N[C@@H](CC(C)C)C(=O)N[C@@H](CC(C)C)C(=O)N[C@@H](CCC(=O)O)C(=O)N[C@@H](CCC(N)=O)C(=O)N[C@@H](CCC(=O)O)C(=O)N[C@@H](CCCCN)C(=O)N[C@@H](CCC(N)=O)C(=O)N[C@@H](CCCCN)C(=O)N[C@@H](CCCCN)C(=O)N[C@@H](CCC(N)=O)C(=O)N[C@@H](CCCNC(=N)N)C(=O)N[C@@H](CCC(=O)O)C(=O)N[C@@H](CCC(N)=O)C(=O)N[C@@H](C)C(=O)N[C@@H](CCC(=O)O)C(=O)N[C@H](C(=O)N[C@@H](CC(N)=O)C(=O)N[C@H](C(=O)N[C@@H](CCC(N)=O)C(=O)N[C@H](C(=O)N[C@@H](CC(C)C)C(=O)N[C@@H](C)C(=O)N[C@@H](CCC(N)=O)C(=O)N[C@H](C(N)=O)C(C)C)[C@@H](C)CC)C(C)C)[C@@H](C)O)[C@@H](C)CC)[C@@H](C)CC)C(C)C)C(C)C
EC50 [nM] (cAMP) [1]: 0.8 nM
Emax (% I) [2]: 6%

B3: SEQ ID NO 118 (peptide)
peptide: [NMeI]VLSLD[dV]PIKLK([AEEA-AEEA-γGlu-C18 diacid])KILLEQEKQKKQREQAETN[Aib]QILAQV-NH2
modifications: N-terminus assumed
SMILES: CC[C@H](C)[C@H](NC)C(=O)N[C@H](C(=O)N[C@@H](CC(C)C)C(=O)N[C@@H](CO)C(=O)N[C@@H](CC(C)C)C(=O)N[C@@H](CC(=O)O)C(=O)N[C@@H](C(=O)N1CCC[C@H]1C(=O)N[C@H](C(=O)N[C@@H](CCCCN)C(=O)N[C@@H](CC(C)C)C(=O)N[C@@H](CCCCNC(=O)COCCOCCNC(=O)COCCOCCNC(=O)CC[C@H](NC(=O)CCCCCCCCCCCCCCCCC(=O)O)C(=O)O)C(=O)N[C@@H](CCCCN)C(=O)N[C@H](C(=O)N[C@@H](CC(C)C)C(=O)N[C@@H](CC(C)C)C(=O)N[C@@H](CCC(=O)O)C(=O)N[C@@H](CCC(N)=O)C(=O)N[C@@H](CCC(=O)O)C(=O)N[C@@H](CCCCN)C(=O)N[C@@H](CCC(N)=O)C(=O)N[C@@H](CCCCN)C(=O)N[C@@H](CCCCN)C(=O)N[C@@H](CCC(N)=O)C(=O)N[C@@H](CCCNC(=N)N)C(=O)N[C@@H](CCC(=O)O)C(=O)N[C@@H](CCC(N)=O)C(=O)N[C@@H](C)C(=O)N[C@@H](CCC(=O)O)C(=O)N[C@H](C(=O)N[C@@H](CC(N)=O)C(=O)NC(C)(C)C(=O)N[C@@H](CCC(N)=O)C(=O)N[C@H](C(=O)N[C@@H](CC(C)C)C(=O)N[C@@H](C)C(=O)N[C@@H](CCC(N)=O)C(=O)N[C@H](C(N)=O)C(C)C)[C@@H](C)CC)[C@@H](C)O)[C@@H](C)CC)[C@@H](C)CC)C(C)C)C(C)C
EC50 [nM] (cAMP) [1]: 0.6 nM
Emax (% I) [2]: 7%

B4: SEQ ID NO 121 (peptide)
peptide: Pentanoyl-VLSLD[dV]PIKLK([AEEA-AEEA-γGlu-C18 diacid])KILLEQEKQKKQREQAETNVQILAQV-NH2
SMILES: CCCCC(=O)N[C@H](C(=O)N[C@@H](CC(C)C)C(=O)N[C@@H](CO)C(=O)N[C@@H](CC(C)C)C(=O)N[C@@H](CC(=O)O)C(=O)N[C@@H](C(=O)N1CCC[C@H]1C(=O)N[C@H](C(=O)N[C@@H](CCCCN)C(=O)N[C@@H](CC(C)C)C(=O)N[C@@H](CCCCNC(=O)COCCOCCNC(=O)COCCOCCNC(=O)CC[C@H](NC(=O)CCCCCCCCCCCCCCCCC(=O)O)C(=O)O)C(=O)N[C@@H](CCCCN)C(=O)N[C@H](C(=O)N[C@@H](CC(C)C)C(=O)N[C@@H](CC(C)C)C(=O)N[C@@H](CCC(=O)O)C(=O)N[C@@H](CCC(N)=O)C(=O)N[C@@H](CCC(=O)O)C(=O)N[C@@H](CCCCN)C(=O)N[C@@H](CCC(N)=O)C(=O)N[C@@H](CCCCN)C(=O)N[C@@H](CCCCN)C(=O)N[C@@H](CCC(N)=O)C(=O)N[C@@H](CCCNC(=N)N)C(=O)N[C@@H](CCC(=O)O)C(=O)N[C@@H](CCC(N)=O)C(=O)N[C@@H](C)C(=O)N[C@@H](CCC(=O)O)C(=O)N[C@H](C(=O)N[C@@H](CC(N)=O)C(=O)N[C@H](C(=O)N[C@@H](CCC(N)=O)C(=O)N[C@H](C(=O)N[C@@H](CC(C)C)C(=O)N[C@@H](C)C(=O)N[C@@H](CCC(N)=O)C(=O)N[C@H](C(N)=O)C(C)C)[C@@H](C)CC)C(C)C)[C@@H](C)O)[C@@H](C)CC)[C@@H](C)CC)C(C)C)C(C)C
EC50 [nM] (cAMP) [1]: 5.76 nM
Emax (% I) [2]: 6%

B5: SEQ ID NO 120 (peptide)
peptide: Pentanoyl-VLSLD[dV]PIKLK([AEEA-AEEA-γGlu-C18 diacid])KILLEQEKQKKQREQAETN[Aib]QILAQV-NH2
SMILES: CCCCC(=O)N[C@H](C(=O)N[C@@H](CC(C)C)C(=O)N[C@@H](CO)C(=O)N[C@@H](CC(C)C)C(=O)N[C@@H](CC(=O)O)C(=O)N[C@@H](C(=O)N1CCC[C@H]1C(=O)N[C@H](C(=O)N[C@@H](CCCCN)C(=O)N[C@@H](CC(C)C)C(=O)N[C@@H](CCCCNC(=O)COCCOCCNC(=O)COCCOCCNC(=O)CC[C@H](NC(=O)CCCCCCCCCCCCCCCCC(=O)O)C(=O)O)C(=O)N[C@@H](CCCCN)C(=O)N[C@H](C(=O)N[C@@H](CC(C)C)C(=O)N[C@@H](CC(C)C)C(=O)N[C@@H](CCC(=O)O)C(=O)N[C@@H](CCC(N)=O)C(=O)N[C@@H](CCC(=O)O)C(=O)N[C@@H](CCCCN)C(=O)N[C@@H](CCC(N)=O)C(=O)N[C@@H](CCCCN)C(=O)N[C@@H](CCCCN)C(=O)N[C@@H](CCC(N)=O)C(=O)N[C@@H](CCCNC(=N)N)C(=O)N[C@@H](CCC(=O)O)C(=O)N[C@@H](CCC(N)=O)C(=O)N[C@@H](C)C(=O)N[C@@H](CCC(=O)O)C(=O)N[C@H](C(=O)N[C@@H](CC(N)=O)C(=O)NC(C)(C)C(=O)N[C@@H](CCC(N)=O)C(=O)N[C@H](C(=O)N[C@@H](CC(C)C)C(=O)N[C@@H](C)C(=O)N[C@@H](CCC(N)=O)C(=O)N[C@H](C(N)=O)C(C)C)[C@@H](C)CC)[C@@H](C)O)[C@@H](C)CC)[C@@H](C)CC)C(C)C)C(C)C
EC50 [nM] (cAMP) [1]: 1.33 nM
Emax (% I) [2]: 3%

More lines, now with the values ahead:

EC50 [nM] (cAMP) [1]: 0.35 nM
Emax (% I) [2]: 10%
B2: SEQ ID NO 80 (peptide)
peptide: Pentanoyl-VLSLD[dV]PIKLK([γGlu-C16 diacid])KILLEQEKQKKQREQAETN[Aib]QILAQV-NH2
SMILES: CCCCC(=O)N[C@H](C(=O)N[C@@H](CC(C)C)C(=O)N[C@@H](CO)C(=O)N[C@@H](CC(C)C)C(=O)N[C@@H](CC(=O)O)C(=O)N[C@@H](C(=O)N1CCC[C@H]1C(=O)N[C@H](C(=O)N[C@@H](CCCCN)C(=O)N[C@@H](CC(C)C)C(=O)N[C@@H](CCCCNC(=O)CC[C@H](NC(=O)CCCCCCCCCCCCCCC(=O)O)C(=O)O)C(=O)N[C@@H](CCCCN)C(=O)N[C@H](C(=O)N[C@@H](CC(C)C)C(=O)N[C@@H](CC(C)C)C(=O)N[C@@H](CCC(=O)O)C(=O)N[C@@H](CCC(N)=O)C(=O)N[C@@H](CCC(=O)O)C(=O)N[C@@H](CCCCN)C(=O)N[C@@H](CCC(N)=O)C(=O)N[C@@H](CCCCN)C(=O)N[C@@H](CCCCN)C(=O)N[C@@H](CCC(N)=O)C(=O)N[C@@H](CCCNC(=N)N)C(=O)N[C@@H](CCC(=O)O)C(=O)N[C@@H](CCC(N)=O)C(=O)N[C@@H](C)C(=O)N[C@@H](CCC(=O)O)C(=O)N[C@H](C(=O)N[C@@H](CC(N)=O)C(=O)NC(C)(C)C(=O)N[C@@H](CCC(N)=O)C(=O)N[C@H](C(=O)N[C@@H](CC(C)C)C(=O)N[C@@H](C)C(=O)N[C@@H](CCC(N)=O)C(=O)N[C@H](C(N)=O)C(C)C)[C@@H](C)CC)[C@@H](C)O)[C@@H](C)CC)[C@@H](C)CC)C(C)C)C(C)C

EC50 [nM] (cAMP) [1]: 1.05 nM
Emax (% I) [2]: 4%
B6: SEQ ID NO 66 (peptide)
peptide: [NMeI]VLSLD[dV]PIKLK([γGlu-C16 diacid])KILLEQEKQKKQREQAETNVQILAQV-NH2
modifications: N-terminus assumed
SMILES: CC[C@H](C)[C@H](NC)C(=O)N[C@H](C(=O)N[C@@H](CC(C)C)C(=O)N[C@@H](CO)C(=O)N[C@@H](CC(C)C)C(=O)N[C@@H](CC(=O)O)C(=O)N[C@@H](C(=O)N1CCC[C@H]1C(=O)N[C@H](C(=O)N[C@@H](CCCCN)C(=O)N[C@@H](CC(C)C)C(=O)N[C@@H](CCCCNC(=O)CC[C@H](NC(=O)CCCCCCCCCCCCCCC(=O)O)C(=O)O)C(=O)N[C@@H](CCCCN)C(=O)N[C@H](C(=O)N[C@@H](CC(C)C)C(=O)N[C@@H](CC(C)C)C(=O)N[C@@H](CCC(=O)O)C(=O)N[C@@H](CCC(N)=O)C(=O)N[C@@H](CCC(=O)O)C(=O)N[C@@H](CCCCN)C(=O)N[C@@H](CCC(N)=O)C(=O)N[C@@H](CCCCN)C(=O)N[C@@H](CCCCN)C(=O)N[C@@H](CCC(N)=O)C(=O)N[C@@H](CCCNC(=N)N)C(=O)N[C@@H](CCC(=O)O)C(=O)N[C@@H](CCC(N)=O)C(=O)N[C@@H](C)C(=O)N[C@@H](CCC(=O)O)C(=O)N[C@H](C(=O)N[C@@H](CC(N)=O)C(=O)N[C@H](C(=O)N[C@@H](CCC(N)=O)C(=O)N[C@H](C(=O)N[C@@H](CC(C)C)C(=O)N[C@@H](C)C(=O)N[C@@H](CCC(N)=O)C(=O)N[C@H](C(N)=O)C(C)C)[C@@H](C)CC)C(C)C)[C@@H](C)O)[C@@H](C)CC)[C@@H](C)CC)C(C)C)C(C)C
